Patent US20020015981A1 (Amgen, published 2002)

Biological target: T1, human α2-polyHis-tag (human, UniProt Q96T91 24-129)
T1 construct: also called human α2 polypeptide; alpha-2; not shown: polyHis tag
T1 sequence (looked up): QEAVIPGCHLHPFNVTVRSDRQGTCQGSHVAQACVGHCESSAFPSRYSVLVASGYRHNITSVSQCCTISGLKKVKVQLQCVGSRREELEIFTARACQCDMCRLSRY
Experiment: heterodimerization assay: co-transfection, immunoprecipitation, Western blot
Procedure: A human α2-polyHis-tag mammalian expression vector and a human β10-FLAG-tag mammalian expression vector were co-transfected into 293 cells and serum free conditioned media was harvested after 72 hours. Immunoprecipitation was done using anti-FLAG M2-Agarose affinity beads (Cat# A1205, Sigma, St. Louis, Mo.). A Western blot of this immunoprecipitate was probed with affinity purified anti-α2 rabbit polyclonal antibodies (example 4) that had been conjugated to Horse Radish Peroxidase (Linx HRP Rapid Protein Conjugation Kit, cat# K8050-01, Invitrogen Corp., Carlsbad, Calif.). A strong α2-polyHis-tag band was observed using the ECL Western Blot detection kit (cat#RPN 2106, Amersham Pharmacia Biotech, Piscataway, N.J.). […] No α2-polyHis-tag band was observed if either of these 2 components was left out of the experiment or if plain agarose beads (i.e. without anti-FLAG antibodies) were used for the immunoprecipitation step.

binding result: binds
B1: human β10-FLAG-tag (ligand)
chain: ASSGNLRTFVGCAVREFTFLAKKPGCRGLRITTDACWGRCETWEKPILEPPYIEAHHRVCTYNETKQVTVKLPNCAPGVDPFYTYPVAIRCDCGACSTATTECETI
notes: Secreted from transfected 293 cells; the cleavage site is predicted, not determined; also called human β10 polypeptide; beta-10; not shown: FLAG tag
